Test results taken from PMC2941470.

Target: endogenous DDX3X from HuH-7 cells (human (endogenous in HuH-7)) (UniProt O00571)
Chain of UniProt O00571 (O00571 whole entry): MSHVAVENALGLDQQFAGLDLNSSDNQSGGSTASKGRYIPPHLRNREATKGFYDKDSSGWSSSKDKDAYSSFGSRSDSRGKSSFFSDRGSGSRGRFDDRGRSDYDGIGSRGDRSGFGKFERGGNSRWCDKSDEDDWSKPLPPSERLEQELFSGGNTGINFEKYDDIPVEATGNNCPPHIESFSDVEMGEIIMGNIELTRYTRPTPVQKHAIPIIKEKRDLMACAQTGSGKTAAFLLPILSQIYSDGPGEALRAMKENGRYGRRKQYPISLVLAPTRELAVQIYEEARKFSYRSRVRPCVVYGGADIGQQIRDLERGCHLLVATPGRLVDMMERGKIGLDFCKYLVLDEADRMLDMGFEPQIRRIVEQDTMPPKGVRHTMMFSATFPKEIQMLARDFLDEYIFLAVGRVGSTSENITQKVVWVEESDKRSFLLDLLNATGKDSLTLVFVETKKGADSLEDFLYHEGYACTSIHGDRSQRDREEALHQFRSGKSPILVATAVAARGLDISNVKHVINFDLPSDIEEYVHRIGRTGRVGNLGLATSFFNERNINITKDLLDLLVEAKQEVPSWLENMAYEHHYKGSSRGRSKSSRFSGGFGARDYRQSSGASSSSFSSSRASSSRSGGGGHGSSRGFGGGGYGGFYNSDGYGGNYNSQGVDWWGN

GFP fusion to HCV core protein residues 16–36 (peptide)
level of HCV replicon NNeo/C-5B RNA in HuH-7 cells 48 h after transient transfection (Northern blot): 50%
